B1: MKK6 D-site peptide / p38-alpha (MAPK14) L195A, full length (parent complex)
chain 1: SQSKGKKRNPGLKIPKEAFEQP
chain 2: MSQERPTFYRQELNKTVWEVPERYQNLSPVGSGAYGSVCAAFDTKTGHRVAVKKLSRPFQSIIHAKRTYRELRLLKHMKHENVIGLLDVFTPARSLEEFNDVYLVTHLMGADLNNIVKCQKLTDDHVQFLIYQILRGLKYIHSADIIHRDLKPSNLAVNEDCELKILDFGLARHTDDEMTGYVATRWYRAPEIMANWMHYNQTVDIWSVGCIMAELLTGRTLFPGTDHIDQLKLILRLVGTPGAELLKKISSESARNYIQSLAQMPKMNFANVFIGANPLAVDLLEKMLVLDSDKRITAAQALAHAYFAQYHDPDDEPVAEPYDQSFESRDFLIDEWKSLTYDEVISFVPPPLDQEEMES

Variants of: B1

Point of comparison: chain 1 N9L, screen value 1.77 Z-score of the enrichment rate within one screen of 711 sequences. Against it:
- chain 1 K7A, chain 1 G11A — lower, 0.113 Z-score of the enrichment rate within one screen of 711 sequences
- chain 1 P10A, chain 1 P15A — lower, 0.87 Z-score of the enrichment rate within one screen of 711 sequences
- chain 1 K6A, chain 1 R8A — lower, -0.524 Z-score of the enrichment rate within one screen of 711 sequences
- chain 1 G5A, chain 1 K13A — lower, -0.263 Z-score of the enrichment rate within one screen of 711 sequences
- chain 1 S3A, chain 1 G11A — lower, 0.988 Z-score of the enrichment rate within one screen of 711 sequences
- chain 1 G5A, chain 1 I14A — lower, -1.03 Z-score of the enrichment rate within one screen of 711 sequences
- chain 1 K7M — lower, 1.7 Z-score of the enrichment rate within one screen of 711 sequences
- chain 1 K7H — lower, 0.776 Z-score of the enrichment rate within one screen of 711 sequences
- chain 1 K7W — lower, 1.32 Z-score of the enrichment rate within one screen of 711 sequences
- chain 1 K7A — lower, 0.591 Z-score of the enrichment rate within one screen of 711 sequences
- chain 1 K7T — lower, 0.476 Z-score of the enrichment rate within one screen of 711 sequences
- chain 1 K7E — lower, -0.535 Z-score of the enrichment rate within one screen of 711 sequences
- chain 1 K7C — lower, 1.13 Z-score of the enrichment rate within one screen of 711 sequences
- chain 1 K7F — lower, 1.5 Z-score of the enrichment rate within one screen of 711 sequences
- chain 1 K7Q — lower, 0.531 Z-score of the enrichment rate within one screen of 711 sequences
- chain 1 K7L — higher, 1.83 Z-score of the enrichment rate within one screen of 711 sequences
- chain 1 K7A, chain 1 K16A — lower, 0.0296 Z-score of the enrichment rate within one screen of 711 sequences
- chain 1 R8A, chain 1 P15A — lower, 0.201 Z-score of the enrichment rate within one screen of 711 sequences
- chain 1 K16C — lower, 0.392 Z-score of the enrichment rate within one screen of 711 sequences
- chain 1 K16L — lower, 1.28 Z-score of the enrichment rate within one screen of 711 sequences
- chain 1 K16P — lower, 0.798 Z-score of the enrichment rate within one screen of 711 sequences
- chain 1 K16M — lower, 1.69 Z-score of the enrichment rate within one screen of 711 sequences
- chain 1 K16G — lower, -0.443 Z-score of the enrichment rate within one screen of 711 sequences
- chain 1 K16E — lower, -0.612 Z-score of the enrichment rate within one screen of 711 sequences
- chain 1 K16W — lower, 0.661 Z-score of the enrichment rate within one screen of 711 sequences
- chain 1 K4A, chain 1 L12A — lower, -1.24 Z-score of the enrichment rate within one screen of 711 sequences
- chain 1 G5L — higher, 4 Z-score of the enrichment rate within one screen of 711 sequences
- chain 1 G5C — lower, 1.42 Z-score of the enrichment rate within one screen of 711 sequences
- chain 1 G5A — lower, 1.57 Z-score of the enrichment rate within one screen of 711 sequences
- chain 1 G5H — higher, 1.94 Z-score of the enrichment rate within one screen of 711 sequences
- chain 1 G5Q — lower, 1.53 Z-score of the enrichment rate within one screen of 711 sequences
- chain 1 G5V — lower, 1.75 Z-score of the enrichment rate within one screen of 711 sequences
- chain 1 G5D — lower, 0.151 Z-score of the enrichment rate within one screen of 711 sequences
- chain 1 N9A, chain 1 K16A — lower, 0.162 Z-score of the enrichment rate within one screen of 711 sequences
- chain 1 G5A, chain 1 N9A — lower, 1.1 Z-score of the enrichment rate within one screen of 711 sequences
- chain 1 L12M — lower, 0.044 Z-score of the enrichment rate within one screen of 711 sequences
- chain 1 L12R — lower, -1.21 Z-score of the enrichment rate within one screen of 711 sequences
- chain 1 L12I — lower, -0.212 Z-score of the enrichment rate within one screen of 711 sequences
- chain 1 L12D — lower, -1.05 Z-score of the enrichment rate within one screen of 711 sequences
- chain 1 L12S — lower, -1.12 Z-score of the enrichment rate within one screen of 711 sequences
- chain 1 L12E — lower, -1.29 Z-score of the enrichment rate within one screen of 711 sequences
- chain 1 N9C — lower, 1.38 Z-score of the enrichment rate within one screen of 711 sequences
- chain 1 N9A — lower, 1.56 Z-score of the enrichment rate within one screen of 711 sequences
- chain 1 N9F — lower, 1.54 Z-score of the enrichment rate within one screen of 711 sequences
- chain 1 N9Y — lower, 1.25 Z-score of the enrichment rate within one screen of 711 sequences
- chain 1 N9V — lower, 0.914 Z-score of the enrichment rate within one screen of 711 sequences
- chain 1 N9E — lower, -0.389 Z-score of the enrichment rate within one screen of 711 sequences
- chain 1 N9G — lower, 1.54 Z-score of the enrichment rate within one screen of 711 sequences
- chain 1 N9D — lower, 0.0592 Z-score of the enrichment rate within one screen of 711 sequences
- chain 1 S3A, chain 1 P10A — lower, 0.521 Z-score of the enrichment rate within one screen of 711 sequences
- chain 1 K4A, chain 1 R8A — lower, -0.792 Z-score of the enrichment rate within one screen of 711 sequences
- chain 1 K6H — lower, 0.638 Z-score of the enrichment rate within one screen of 711 sequences
- chain 1 K6L — lower, 1.2 Z-score of the enrichment rate within one screen of 711 sequences
- chain 1 K6I — lower, 0.848 Z-score of the enrichment rate within one screen of 711 sequences
- chain 1 K6S — lower, 0.535 Z-score of the enrichment rate within one screen of 711 sequences
- chain 1 K6T — lower, 0.469 Z-score of the enrichment rate within one screen of 711 sequences
- chain 1 K6F — lower, 1.13 Z-score of the enrichment rate within one screen of 711 sequences
- chain 1 K6N — lower, 0.746 Z-score of the enrichment rate within one screen of 711 sequences
- chain 1 P15L — lower, 1.3 Z-score of the enrichment rate within one screen of 711 sequences
- chain 1 P15F — lower, 1.25 Z-score of the enrichment rate within one screen of 711 sequences
- chain 1 P15N — higher, 2.75 Z-score of the enrichment rate within one screen of 711 sequences
- chain 1 P15C — higher, 4.38 Z-score of the enrichment rate within one screen of 711 sequences
- chain 1 P15A — higher, 2.82 Z-score of the enrichment rate within one screen of 711 sequences
- chain 1 K6A, chain 1 K7A — lower, -0.229 Z-score of the enrichment rate within one screen of 711 sequences
- chain 1 P10A, chain 1 K13A — lower, -0.927 Z-score of the enrichment rate within one screen of 711 sequences
- chain 1 S3I — higher, 2 Z-score of the enrichment rate within one screen of 711 sequences
- chain 1 S3V — lower, 1.42 Z-score of the enrichment rate within one screen of 711 sequences
- chain 1 S3E — lower, 0.822 Z-score of the enrichment rate within one screen of 711 sequences
- chain 1 S3W — higher, 2.4 Z-score of the enrichment rate within one screen of 711 sequences
- chain 1 S3L — lower, 1.66 Z-score of the enrichment rate within one screen of 711 sequences
- chain 1 S3K — higher, 2.42 Z-score of the enrichment rate within one screen of 711 sequences
- chain 1 S3F — lower, 1.62 Z-score of the enrichment rate within one screen of 711 sequences
- chain 1 S3A, chain 1 L12A — lower, -1.11 Z-score of the enrichment rate within one screen of 711 sequences
- chain 1 K4L — lower, 1.3 Z-score of the enrichment rate within one screen of 711 sequences

Source: paper doi:10.1101/2021.08.20.457142
